Results on eight molecules are retold here after patent US20240343802A1 (Zymeworks, published 2024).

For assay [1], the target named is T1, CD20 on CD19 and CD20-expressing Raji B cells (human, UniProt P11836 1-297).
T1 construct: whole, on cells
T1 sequence (looked up): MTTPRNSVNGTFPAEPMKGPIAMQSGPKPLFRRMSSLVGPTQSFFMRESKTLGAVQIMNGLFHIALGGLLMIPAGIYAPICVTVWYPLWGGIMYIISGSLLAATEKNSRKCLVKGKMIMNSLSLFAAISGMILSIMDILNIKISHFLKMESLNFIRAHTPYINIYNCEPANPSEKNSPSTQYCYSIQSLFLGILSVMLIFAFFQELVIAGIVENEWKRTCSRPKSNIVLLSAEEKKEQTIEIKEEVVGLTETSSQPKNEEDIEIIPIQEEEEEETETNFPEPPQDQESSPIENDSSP
Description: FACS, Raji cells.

In assay [2] the target is T2, CD3 on CD3-expressing T cells (Jurkat, HPB-ALL) (UniProt P07766 23-207).
T2 construct: whole, on cells; A multi-chain complex on cells; also called CD3 complex
Kind of assay: FACS, Jurkat cells. (In flow cytometry, cells or beads pass a laser one at a time.)

Assay [3] has as its target T3, CD19 on CD19-expressing Raji B cells (human, UniProt P15391 20-556).
T3 construct: whole, on cells
T3 sequence (looked up): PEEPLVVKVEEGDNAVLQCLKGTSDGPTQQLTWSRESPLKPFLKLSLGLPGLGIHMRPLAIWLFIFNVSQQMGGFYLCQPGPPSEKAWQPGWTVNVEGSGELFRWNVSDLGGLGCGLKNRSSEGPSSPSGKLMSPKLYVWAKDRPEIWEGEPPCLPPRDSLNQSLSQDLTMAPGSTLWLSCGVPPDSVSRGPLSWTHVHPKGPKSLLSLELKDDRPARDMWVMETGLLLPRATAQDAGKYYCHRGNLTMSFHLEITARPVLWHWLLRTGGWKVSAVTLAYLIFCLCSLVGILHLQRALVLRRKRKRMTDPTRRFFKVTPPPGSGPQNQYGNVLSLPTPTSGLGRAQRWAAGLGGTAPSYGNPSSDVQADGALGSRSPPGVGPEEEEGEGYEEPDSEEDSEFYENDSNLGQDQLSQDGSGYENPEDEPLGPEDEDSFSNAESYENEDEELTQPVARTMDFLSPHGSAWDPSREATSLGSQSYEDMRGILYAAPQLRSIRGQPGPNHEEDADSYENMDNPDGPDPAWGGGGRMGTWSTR
Description: FACS, Raji cells.

B1: v1821, common light chain: aCD3-12F6_Fab chain A / aCD20-Rituximab_Fab chain B, Rituximab light chain (bispecific antibody, human IgG1, kappa)
chain 1: QVQLVQSGGGVVQPGRSLRLSCKASGYTFTSYTMHWVRQAPGKGLEWIGYINPSSGYTKYNQKFKDRFTISADKSKSTAFLQMDSLRPEDTGVYFCARWQDYDVYFDYWGQGTPVTVSSASTKGPSVFPLAPSSKSTSGGTAALGCLVKDYFPEPVTVSWNSGALTSGVHTFPAVLQSSGLYSLSSVVTVPSSSLGTQTYICNVNHKPSNTKVDKKVEPKSCDKTHTCPPCPAPELLGGPSVFLFPPKPKDTLMISRTPEVTCVVVDVSHEDPEVKFNWYVDGVEVHNAKTKPREEQYNSTYRVVSVLTVLHQDWLNGKEYKCKVSNKALPAPIEKTISKAKGQPREPQVYVYPPSRDELTKNQVSLTCLVKGFYPSDIAVEWESNGQPENNYKTTPPVLDSDGSFALVSKLTVDKSRWQQGNVFSCSVMHEALHNHYTQKSLSLSPGK
chain 2: not shown
chain 3: QIVLSQSPAILSASPGEKVTMTCRASSSVSYIHWFQQKPGSSPKPWIYATSNLASGVPVRFSGSGSGTSYSLTISRVEAEDAATYYCQQWTSNPPTFGGGTKLEIKRTVAAPSVFIFPPSDEQLKSGTASVVCLLNNFYPREAKVQWKVDNALQSGNSQESVTEQDSKDSTYSLSSTLTLSKADYEKHKVYACEVTHQGLSSPVTKSFNRGEC
notes: The single light chain is shared by both Fabs
On to B1, for which, in assay [1], the “Bmax (OD450)” value turned out to be 4.71 OD450 and the Kd (as a rule, the concentration at which binding is half-saturated) stood at 122 nM. Moreover, in assay [2], the “Bmax (OD450)” value stood at 2.11 OD450 and the Kd came out at 182 nM.

B2: v1823, common light chain: aCD3-12F6_Fab chain A / aCD20-Tositumumab_Fab chain B, Tositumumab light chain (bispecific antibody, human IgG1, kappa)
chain 1: QVQLVQSGGGVVQPGRSLRLSCKASGYTFTSYTMHWVRQAPGKGLEWIGYINPSSGYTKYNQKFKDRFTISADKSKSTAFLQMDSLRPEDTGVYFCARWQDYDVYFDYWGQGTPVTVSSASTKGPSVFPLAPSSKSTSGGTAALGCLVKDYFPEPVTVSWNSGALTSGVHTFPAVLQSSGLYSLSSVVTVPSSSLGTQTYICNVNHKPSNTKVDKKVEPKSCDKTHTCPPCPAPELLGGPSVFLFPPKPKDTLMISRTPEVTCVVVDVSHEDPEVKFNWYVDGVEVHNAKTKPREEQYNSTYRVVSVLTVLHQDWLNGKEYKCKVSNKALPAPIEKTISKAKGQPREPQVYVYPPSRDELTKNQVSLTCLVKGFYPSDIAVEWESNGQPENNYKTTPPVLDSDGSFALVSKLTVDKSRWQQGNVFSCSVMHEALHNHYTQKSLSLSPGK
chain 2: not shown
chain 3: QIVLSQSPAILSASPGEKVTMTCRASSSVSYMHWYQQKPGSSPKPWIYAPSNLASGVPARFSGSGSGTSYSLTISRVEAEDAATYYCQQWSFNPPTFGAGTKLELKRTVAAPSVFIFPPSDEQLKSGTASVVCLLNNFYPREAKVQWKVDNALQSGNSQESVTEQDSKDSTYSLSSTLTLSKADYEKHKVYACEVTHQGLSSPVTKSFNRGEC
notes: as for B1
Consider B2, for which, in assay [2], the “Bmax (OD450)” value stood at 0.88 OD450 and binding was put at a Kd of 68.8 nM.

B3: v6325, hybrid: aCD3-Teplizumab-hOKT3_Fab chain A and light chain / aCD20-Ofatumumab_scFvFc (VHVL) chain B (bispecific antibody, human IgG1, kappa)
chain 1: QVQLVQSGGGVVQPGRSLRLSCKASGYTFTRYTMHWVRQAPGKGLEWIGYINPSRGYTNYNQKVKDRFTISRDNSKNTAFLQMDSLRPEDTGVYFCARYYDDHYCLDYWGQGTPVTVSSASTKGPSVFPLAPSSKSTSGGTAALGCLVKDYFPEPVTVSWNSGALTSGVHTFPAVLQSSGLYSLSSVVTVPSSSLGTQTYICNVNHKPSNTKVDKKVEPKSCDKTHTCPPCPAPELLGGPSVFLFPPKPKDTLMISRTPEVTCVVVDVSHEDPEVKFNWYVDGVEVHNAKTKPREEQYNSTYRVVSVLTVLHQDWLNGKEYKCKVSNKALPAPIEKTISKAKGQPREPQVYVYPPSRDELTKNQVSLTCLVKGFYPSDIAVEWESNGQPENNYKTTPPVLDSDGSFALVSKLTVDKSRWQQGNVFSCSVMHEALHNHYTQKSLSLSPGK
chain 2: not shown
chain 3: DIQMTQSPSSLSASVGDRVTITCSASSSVSYMNWYQQTPGKAPKRWIYDTSKLASGVPSRFSGSGSGTDYTFTISSLQPEDIATYYCQQWSSNPFTFGQGTKLQITRTVAAPSVFIFPPSDEQLKSGTASVVCLLNNFYPREAKVQWKVDNALQSGNSQESVTEQDSKDSTYSLSSTLTLSKADYEKHKVYACEVTHQGLSSPVTKSFNRGEC
For the molecule B3, in assay [1], the “Bmax (OD450)” value was determined as 6.44 OD450 and the Kd was found to be 11.9 nM. For the same molecule, in assay [2], the “Bmax (OD450)” value was found to be 2.51 OD450 and the equilibrium dissociation constant (Kd) was determined as 1.58 nM.

B4: v4542, cyno/human cross-reactive anti-CD3 BiTE 12C (VH-VL) scFv / anti-CD19 MOR208 (VH-VL) scFv heterodimeric knock-out Fc (bispecific antibody)
chain 1: not shown
chain 2: EVQLVESGGGLVKPGGSLKLSCAASGYTFTSYVMHWVRQAPGKGLEWIGYINPYNDGTKYNEKFQGRVTISSDKSISTAYMELSSLRSEDTAMYYCARGTYYYGTRVFDYWGQGTLVTVSSGGGGSGGGGSGGGGSDIVMTQSPATLSLSPGERATLSCRSSKSLQNVNGNTYLYWFQQKPGQSPQLLIYRMSNLNSGVPDRFSGSGSGTEFTLTISSLEPEDFAVYYCMQHLEYPITFGAGTKLEIKAAEPKSSDKTHTCPPCPAPEAAGGPSVFLFPPKPKDTLMISRTPEVTCVVVSVSHEDPEVKFNWYVDGVEVHNAKTKPREEQYNSTYRVVSVLTVLHQDWLNGKEYKCKVSNKALPAPIEKTISKAKGQPREPQVYVLPPSRDELTKNQVSLLCLVKGFYPSDIAVEWESNGQPENNYLTWPPVLDSDGSFFLYSKLTVDKSRWQQGNVFSCSVMHEALHNHYTQKSLSLSPGK
Turning to B4, in assay [3], the “Bmax (OD450)” value amounted to 2.96 OD450 and the affinity, expressed as Kd, was 0.7 nM.

B5: v5852, hybrid: aCD3-Teplizumab-hOKT3_Fab chain A and light chain / aCD19-MOR208_scFvFc (VHVL) chain B (bispecific antibody, human IgG1, kappa, L234A L235A)
chain 1: QVQLVQSGGGVVQPGRSLRLSCKASGYTFTRYTMHWVRQAPGKGLEWIGYINPSRGYTNYNQKVKDRFTISRDNSKNTAFLQMDSLRPEDTGVYFCARYYDDHYCLDYWGQGTPVTVSSASTKGPSVFPLAPSSKSTSGGTAALGCLVKDYFPEPVTVSWNSGALTSGVHTFPAVLQSSGLYSLSSVVTVPSSSLGTQTYICNVNHKPSNTKVDKKVEPKSCDKTHTCPPCPAPELLGGPSVFLFPPKPKDTLMISRTPEVTCVVVDVSHEDPEVKFNWYVDGVEVHNAKTKPREEQYNSTYRVVSVLTVLHQDWLNGKEYKCKVSNKALPAPIEKTISKAKGQPREPQVYVYPPSRDELTKNQVSLTCLVKGFYPSDIAVEWESNGQPENNYKTTPPVLDSDGSFALVSKLTVDKSRWQQGNVFSCSVMHEALHNHYTQKSLSLSPGK
chain 2: EVQLVESGGGLVKPGGSLKLSCAASGYTFTSYVMHWVRQAPGKGLEWIGYINPYNDGTKYNEKFQGRVTISSDKSISTAYMELSSLRSEDTAMYYCARGTYYYGTRVFDYWGQGTLVTVSSGGGGSGGGGSGGGGSDIVMTQSPATLSLSPGERATLSCRSSKSLQNVNGNTYLYWFQQKPGQSPQLLIYRMSNLNSGVPDRFSGSGSGTEFTLTISSLEPEDFAVYYCMQHLEYPITFGAGTKLEIKAAEPKSSDKTHTCPPCPAPEAAGGPSVFLFPPKPKDTLMISRTPEVTCVVVSVSHEDPEVKFNWYVDGVEVHNAKTKPREEQYNSTYRVVSVLTVLHQDWLNGKEYKCKVSNKALPAPIEKTISKAKGQPREPQVYVLPPSRDELTKNQVSLLCLVKGFYPSDIAVEWESNGQPENNYLTWPPVLDSDGSFFLYSKLTVDKSRWQQGNVFSCSVMHEALHNHYTQKSLSLSPGK
chain 3: DIQMTQSPSSLSASVGDRVTITCSASSSVSYMNWYQQTPGKAPKRWIYDTSKLASGVPSRFSGSGSGTDYTFTISSLQPEDIATYYCQQWSSNPFTFGQGTKLQITRTVAAPSVFIFPPSDEQLKSGTASVVCLLNNFYPREAKVQWKVDNALQSGNSQESVTEQDSKDSTYSLSSTLTLSKADYEKHKVYACEVTHQGLSSPVTKSFNRGEC
As for B5, in assay [2], the “Bmax (OD450)” value was 2.21 OD450 and the dissociation constant (Kd) was determined as 25.2 nM.

B6: v1813, common light chain: aCD3-foralumab_Fab chain A / aCD20-Ofatumumab_Fab chain B, Ofatumumab light chain (bispecific antibody, human IgG1, kappa)
chain 1: not shown
chain 2: not shown
chain 3: not shown
notes: as for B1
As to B6, the “Bmax (OD450)” value in assay [1] is 6.4 OD450; in assay [2], 2.54 OD450. In addition, the figures for the Kd in assay [1] and in assay [2] were 4.04 nM and 691 nM, respectively.

B7: v5850, hybrid: aCD3-BiTEx_I2C_scFvFc (VHVL) chain A / aCD20-Ofatumumab_Fab chain B and light chain (bispecific antibody)
chain 1: not shown
chain 2: not shown
chain 3: not shown
On to B7, for which, in assay [1], the “Bmax (OD450)” value was 4.24 OD450 and the Kd amounted to 3.6 nM.

B8: v5851, hybrid: aCD3-BiTEx_I2C_scFvFc (VHVL) chain A / aCD19-MOR208_Fab chain B and light chain (bispecific antibody)
chain 1: not shown
chain 2: not shown
chain 3: DIVMTQSPATLSLSPGERATLSCRSSKSLQNVNGNTYLYWFQQKPGQSPQLLIYRMSNLNSGVPDRFSGSGSGTEFTLTISSLEPEDFAVYYCMQHLEYPITFGAGTKLEIKRTVAAPSVFIFPPSDEQLKSGTASVVCLLNNFYPREAKVQWKVDNALQSGNSQESVTEQDSKDSTYSLSSTLTLSKADYEKHKVYACEVTHQGLSSPVTKSFNRGEC
On to B8, for which, in assay [3], the “Bmax (OD450)” value stood at 3.88 OD450 and the dissociation constant (Kd) came out at 1.38 nM.
